Results reported in patent US9878046B2, “Adverse side-effects associated with administration of an anti-hyaluronan agent and methods for ameliorating or preventing the side-effects” (Halozyme, Inc., priority 2010, dated 2018).
Entries after “also recorded” stand apart in the source; their conditions may differ.

Legend:
[1] = Hyaluronidase activity (microturbidity assay), specific activity; type: biochemical
Procedure: Hyaluronidase activity of soluble rHuPH20 is measured by incubating soluble rHuPH20 with sodium hyaluronate (hyaluronic acid) for a set period of time (10 minutes) and then precipitating the undigested sodium hyaluronate with the addition of acidified serum albumin. The turbidity of the resulting sample is measured at 640 nm after a 30 minute development period.
Dilutions of the sample were prepared in Enzyme Diluent Solutions. The Enzyme Diluent Solution was prepared by dissolving 33.0±0.05 mg of hydrolyzed gelatin in 25.0 mL of the 50 mM PIPES Reaction Buffer (140 mM NaCl, 50 mM PIPES, pH 5.5) and 25.0 mL of sterile water for injection (SWFI), and diluting 0.2 mL of 25% Buminate solution into the mixture and vortexing for 30 seconds. This was performed within 2 hours of use and stored on ice until needed. The samples were diluted to an estimated 1-2 U/mL. […]
The MULTIDROP 384 was prepared to stop the reaction by priming the machine with Serum Working Solution and changing the volume setting to 240 μL. […] The plate was removed and shaken on a plate reader for 10 seconds. After a further 15 minutes, the turbidity of the samples was measured at 640 nm and the hyaluronidase activity (in U/mL) of each sample was determined by fitting to the standard curve.
Specific activity (Units/mg) was calculated by dividing the hyaluronidase activity (U/ml) by the protein concentration (mg/mL).

[2] = system: 46 different cytokines, chemokines, acute-phase reactants, and other plasma inflammatory biomarkers; test: Human inflammation multi-analyte profile (MAP) of patient plasma; type: in vivo; details: first two patients, single IV dose 0.05 mg/kg
Procedure: The patient plasma samples also were analyzed using a human inflammation multi-analyte profile (MAP) of 46 different cytokines, chemokines, acute-phase reactants, and other plasma inflammatory biomarkers.

[3] = system: HA catabolites; test: HA catabolites in dogs; type: in vivo, beagle dog; details: after PEGPH20 administration, with or without dexamethasone
Procedure: HA catabolites also were measured as described in Example 6.

[4] = system: soluble plasma hyaluronan; test: Soluble plasma hyaluronan ELISA in PC3 tumor-bearing mice; type: in vivo; details: PEGPH20 4.5 mg/kg alone or + dexamethasone (high or low dose)
Procedure: Plasma samples were additionally used to measure soluble plasma hyaluronan in the control group and each of the treatment groups (R&D Systems Catalog DY3614; ELISA assay). In the vehicle control group, the plasma hyaluronan levels ranged from 800,000 to 900,000 ng/mL.

[5] = system: pericellular and stromal HA; test: Histochemical detection of HA in patient tumor biopsies; type: in vivo, human; details: colon cancer patient, liver metastasis, 1.6 μg/kg twice weekly + dexamethasone, post vs archived pre biopsy
Procedure: An archived pre-dose biopsy (pre biopsy) obtained in 2007 (3.5 years prior to the PEGPH20 study) and a post-PEGPH20 Cycle 1 (3 days after the last dose) biospsy (Post biopsy) were obtained from a colon cancer patient with liver metastases. The patient post-treatment biopsy was obtained after one cycle of PEGPH20 treatment at 1.6 μg/kg on a twice weekly schedule with dexamethasone co-treatment.
Briefly, the tumor biopsies were fixed in normal buffered formalin (NBF) and 5 μm sections cut and stained using a biotin labeled hyaluronan binding protein (HABP-bio) (Seikagaku, Japan). After washing to remove the primary reagent, a labeled secondary reagent was used. Nuclei were counter-stained using a DAPI (4′,6-diamidino-2-phenylindole) reagent. Micrographs were captured via a Nikon Eclipse TE2000U inverted fluorescent microscope coupled to a Insight FireWire digital camera (Diagnostic Instruments, Michigan) or ZEISS overhead scope (Carl Zeiss, Inc.) that has the same imaging system.

[6] = system: tumor regions; test: Apparent diffusion coefficient MRI (ADC-MRI) of tumors; type: in vivo, human
Procedure: Scans were performed pre-treatment and post-treatment.
Apparent diffusion coefficient magnetic Resonance imaging (ADC-MRI) measures the volume of water that has moved across the cell membrane based upon a calculation derived from the pre- and post-treatment scans. ADC-MRI scans were completed for a total of 10 of the 14 patients in the study described in Example 6 and 4 of the 5 patients in the study described in Example 10. […] Increased ADC values are consistent with the mechanism of action of PEGPH20.

[7] = all scanned patients of both studies

B1: PEGPH20 (protein)
chain: LNFRAPPVIPNVPFLWAWNAPSEFCLGKFDEPLDMSLFSFIGSPRINATGQGVTIFYVDRLGYYPYIDSITGVTVNGGIPQKISLQDHLDKAKKDITFYMPVDNLGMAVIDWEEWRPTWARNWKPKDVYKNRSIELVQQQNVQLSLTEATEKAKQEFEKAGKDFLVETIKLGKLLRPNHLWGYYLFPDCYNHHYKKPGYNGSCFNVEIKRNDDLSWLWNESTALYPSIYLNTQQSPVAATLYVRNRVREAIRVSKIPDAKSPLPVFAYTRIVFTDQVLKFLSQDELVYTFGETVALGASGIVIWGTLSIMRSMKSCLLLDNYMETILNPYIINVTLAAKMCSQVLCQEQGVCIRKNWNSSDYLHLNPDNFAIQLEKGGKFTVRGKPTLEDLEQFSEKFYCSCYSTLSCKEKADVKDTDAVDVCIADGVCIDAFLKPPMETEEPQIFY
[1]; PEGylated rHuPH20 material at 3.5 mg/mL
  final enzyme activity: 140,000 U/mL
[1]; rHuPH20 preparation vs PEGylated form
  specific activity: about 32,000 Units/mg
[2]
  inflammation MAP findings: No notable findings
[3]
  HA catabolites: appearance of HA catabolites
[4]
  plasma hyaluronan: no detectable (below limit of quantitation) hyaluronan
[5]
  change in tumor HA by histochemical staining: decrease in pericellular and stromal HA levels
[6]; 0.5 μg/kg, 2x/wk, scan D3
  Change in Tumor ADC-MRI from baseline: no change
[6]; 0.5 μg/kg, 21 day cycle, individual patients, scan D3 or D4
  Change in Tumor ADC-MRI from baseline: decrease in lymph nodes; also recorded: increase
[6]; 0.75 μg/kg, 21 day cycle, individual patients, scan D3 (D30)
  Change in Tumor ADC-MRI from baseline: increase; also recorded: no change
[6]; 1.0 μg/kg, 21 day cycle, scan D5
  Change in Tumor ADC-MRI from baseline: increase
[6]; 1.5 μg/kg, 21 day cycle, scan D3
  Change in Tumor ADC-MRI from baseline: no change
[6]; 50 μg/kg, scan D4
  Change in Tumor ADC-MRI from baseline: no change
[6]; [7]
  patients with ADC values decreased: 2 of 14
  patients with ADC values unchanged: 5 of 14
  patients with increases in ADC-MRI: 7 of 14
